Results on eight sequences are retold here after the supplement of paper PMC11246515.

A short description of this series: total protein half-life in vivo (active degradation + dilution); higher = more stable protein.
Where [1] appears, read: E. coli NCM3722 delta-clpP, growth: N-lim chemostat, doubling time 6 h.
The mark [2] stands for this setting: E. coli NCM3722 delta-hslV, growth: N-lim chemostat, doubling time 6 h.
The mark [3] stands for this setting: E. coli NCM3722 delta-lon, growth: N-lim chemostat, doubling time 6 h.
[4] abbreviates: E. coli NCM3722 delta-smpB, growth: N-lim chemostat, doubling time 6 h.
Setting [5] is: wild type E. coli NCM3722, growth: C-lim chemostat, doubling time 6 h.
Where [6] appears, read: wild type E. coli NCM3722, growth: C-lim chemostat, doubling time 12 h.
Setting [7] is: wild type E. coli NCM3722, growth: N-lim chemostat, doubling time 6 h.
Where [8] appears, read: wild type E. coli NCM3722, growth: N-lim chemostat, doubling time 12 h.
Where [9] appears, read: wild type E. coli NCM3722, growth: P-lim chemostat, doubling time 6 h.
Where [10] appears, read: wild type E. coli NCM3722, growth: P-lim chemostat, doubling time 12 h.
[11] abbreviates: E. coli NCM3722 delta-clpP delta-lon delta-hslV, growth: N-lim chemostat, doubling time 6 h.
Where [12] appears, read: wild type E. coli NCM3722, growth: C-lim chemostat, doubling time 3 h.

± gives the standard deviation of the averaged measurements.

On to “MFVEHNLIKNIKIFTLAFTLTVVLIQLSRFISPLAIIHSSYIFLAWMPLCVMLSILFIFGWRGVVPVLCGMFCTNLWNFHLSFLQTAVMLGSQTFVVLCACAILRWQLGTRWRYGLTSRYVWQRLFWLGLVTPIGIKCSMYLVGSFFDFPLKISTFFGDADAIFTVVDLLSLFTAVLIYNMLFYYLTRMIVSPHFAQILWRRDIAPSLGKEKRAFTLSWLAALSVLLLLLCTPYENDFIAGYLVPVFFIIFTLGVGKLRYPFLNLTWAVSTLCLLNYNQNFLQGVETEYSLAFILAVLISFSVCLLYMVRIYHRSEWLNRRWHLQALTDPLTLLPNFRALEQAPEQEAGKSFCCLRIDNLEFMSRHYGLMMRVHCIRSICRTLLPLMQENEKLYQLPGSELLLVLSGPETEGRLQHMVNILNSRQIHWNNTGLDMGYGAAWGRFDGNQETLQPLLGQLSWLAEQSCAHHHVLALDSREEMVSGQTTKQVLLLNTIRTALDQGDLLLYAQPIRNKEGEGYDEILARLKYDGGIMTPDKFLPLIAQFNLSARFDLQVLESLLKWLATHPCDKKGPRFSVNLMPLTLLQKNIAGRIIRLFKRYHISPQAVILEITEEQAFSNAESSMYNIEQLHKFGFRIAIDDFGTGYANYERLKRLQADIIKIDGVFVKDIVTNTLDAMIVRSITDLAKAKSLSVVAEFVETQQQQALLHKLGVQYLQGYLIGRPQPLAD”, for which the “total protein half-life in vivo” value runs as follows: under setting [1], 6.53 ± 0.1 h; under setting [2], 5.86 ± 0.58 h; under setting [3], 6.27 ± 0.65 h; under setting [4], 5.72 ± 0.47 h; under setting [5], 5.29 ± 1.1 h; under setting [6], 13.6 ± 0.27 h. Besides, the “total protein half-life in vivo” value was 6.08 ± 0.22 h under setting [7], 12.2 ± 1.5 h under setting [8], 6.1 ± 0.44 h under setting [9] and 13.8 ± 0.87 h under setting [10].

Consider “MLEMLMQWYRRRFSDPEAIALLVILVAGFGIIFFFSGLLAPLLVAIVLAYLLEWPTVRLQSIGCSRRWATSIVLVVFVGILLLMAFVVLPIAWQQGIYLIRDMPGMLNKLSDFAATLPRRYPALMDAGIIDAMAENMRSRMLTMGDSVVKISLASLVGLLTIAVYLVLVPLMVFFLLKDKEQMLNAVRRVLPRNRGLAGQVWKEMNQQITNYIRGKVLEMIVVGIATWLGFLLFGLNYSLLLAVLVGFSVLIPYIGAFVVTIPVVGVALFQFGAGTEFWSCFAVYLIIQALDGNLLVPVLFSEAVNLHPLVIILSVVIFGGLWGFWGVFFAIPLATLIKAVIHAWPDGQIAQE [P0AFI9]”, for which the “total protein half-life in vivo” value by setting is: under setting [11], over 8 h; under setting [4], over 8 h; under setting [12], over 4 h; under setting [5], 6.12 ± 0.64 h; under setting [6], 12.2 ± 0.49 h; under setting [8], 10.4 ± 1.8 h.

As for “MNKYQAVIIGFGKAGKTLAVTLAKAGWRVALIEQSNAMYGGTCINIGCIPTKTLVHDAQQHTDFVRAIQRKNEVVNFLRNKNFHNLADMPNIDVIDGQAEFINNHSLRVHRPEGNLEIHGEKIFINTGAQTVVPPIPGITTTPGVYDSTGLLNLKELPGHLGILGGGYIGVEFASMFANFGSKVTILEAASLFLPREDRDIADNIATILRDQGVDIILNAHVERISHHENQVQVHSEHAQLAVDALLIASGRQPATASLHPENAGIAVNERGAIVVDKRLHTTADNIWAMGDVTGGLQFTYISLDDYRIVRDELLGEGKRSTDDRKNVPYSVFMTPPLSRVGMTEEQARESGADIQVVTLPVAAIPRARVMNDTRGVLKAIVDNKTQRMLGASLLCVDSHEMINIVKMVMDAGLPYSILRDQIFTHPSMSESLNDLFSLVK”, the “total protein half-life in vivo” value under setting [11] amounted to 5.58 ± 0.12 h; the “total protein half-life in vivo” value under setting [1] was 4.727 ± 0.039 h; the “total protein half-life in vivo” value under setting [2] was determined as 4.73 ± 0.26 h; the “total protein half-life in vivo” value under setting [3] is 5.53 ± 0.24 h; the “total protein half-life in vivo” value under setting [4] was found to be 4.9 ± 0.99 h; the “total protein half-life in vivo” value under setting [12] came out at 3.31 ± 0.05 h. Further, the “total protein half-life in vivo” value under setting [6] is 10.4 ± 1 h; the “total protein half-life in vivo” value under setting [7] was 4.71 ± 0.29 h; the “total protein half-life in vivo” value under setting [8] amounted to 8.5 ± 0.62 h; the “total protein half-life in vivo” value under setting [9] was determined as 6 ± 0.4 h; the “total protein half-life in vivo” value under setting [10] was 12 ± 1.2 h.

For “MKNDVISPEFDENGRPLRRIRSFVRRQGRLTKGQEHALENYWPVMGVEFSEDMLDFPALFGREAPVTLEIGFGMGASLVAMAKDRPEQDFLGIEVHSPGVGACLASAHEEGLSNLRVMCHDAVEVLHKMIPDNSLRMVQLFFPDPWHKARHNKRRIVQVPFAELVKSKLQLGGVFHMATDWEPYAEHMLEVMSSIDGYKNLSESNDYVPRPASRPVTKFEQRGHRLGHGVWDLMFERVK [P0A8I5]”, the “total protein half-life in vivo” value under setting [11] was found to be 5.11 ± 0.029 h; the “total protein half-life in vivo” value under setting [1] came to 4.82 h; the “total protein half-life in vivo” value under setting [2] stood at 7.09 h; the “total protein half-life in vivo” value under setting [4] was determined as 4.18 ± 0.61 h; the “total protein half-life in vivo” value under setting [12] came to 2.73 h; the “total protein half-life in vivo” value under setting [5] worked out at 4.88 ± 0.4 h. In addition, the “total protein half-life in vivo” value by setting is: under setting [6], 8.12 ± 0.26 h; under setting [7], 4.58 ± 0.17 h; under setting [8], 7.49 ± 1.2 h; under setting [9], 3.77 h; under setting [10], 8.11 ± 0.11 h.

For the sequence “MMANIWWSLPLTLIVFFAARKLAARYKFPLLNPLLVAMVVIIPFLMLTGISYDSYFKGSEVLNDLLQPAVVALAYPLYEQLHQIRARWKSIITICFIGSVVAMVTGTSVALLMGASPEIAASILPKSVTTPIAMAVGGSIGGIPAISAVCVIFVGILGAVFGHTLLNAMRIRTKAARGLAMGTASHALGTARCAELDYQEGAFSSLALVLCGIITSLIAPFLFPIILAVMG [P0AD19]”, the “total protein half-life in vivo” value under setting [7] is 5.99 h.

With “MSLVTDLPAIFDQFSEARQTGFLTVMDLKERGIPLVGTYCTFMPQEIPMAAGAVVVSLCSTSDETIEEAEKDLPRNLCPLIKSSYGFGKTDKCPYFYFSDLVVGETTCDGKKKMYEYMAEFKPVHVMQLPNSVKDDASRALWKAEMLRLQKTVEERFGHEISEDALRDAIALKNRERRALANFYHLGQLNPPALSGSDILKVVYGATFRFDKEALINELDAMTARVRQQWEEGQRLDPRPRILITGCPIGGAAEKVVRAIEENGGWVVGYENCTGAKATEQCVAETGDVYDALADKYLAIGCSCVSPNDQRLKMLSQMVEEYQVDGVVDVILQACHTYAVESLAIKRHVRQQHNIPYIAIETDYSTSDVGQLSTRVAAFIEML”, the “total protein half-life in vivo” value turned out to be 1.59 ± 0.089 h under setting [12], 1.98 h under setting [5] and 2.51 ± 0.083 h under setting [6].

Take “MRKLTALFVASTLALGAANLAHAADTTTAAPADAKPMMHHKGKFGPHQDMMFKDLNLTDAQKQQIREIMKGQRDQMKRPPLEERRAMHDIIASDTFDKVKAEAQIAKMEEQRKANMLAHMETQNKIYNILTPEQKKQFNANFEKRLTERPAAKGKMPATAE”: the “total protein half-life in vivo” value by setting is: under setting [1], 3.6 h; under setting [3], 4.86 ± 2.6 h; under setting [4], 4.4 ± 1.1 h; under setting [12], 2.63 h; under setting [5], 4.54 ± 0.28 h; under setting [6], 8.06 ± 4.6 h. Moreover, the “total protein half-life in vivo” value was 1.93 h under setting [8], 3.86 ± 0.27 h under setting [9] and 6.54 ± 0.43 h under setting [10].

“MKFVSFNINGLRARPHQLEAIVEKHQPDVIGLQETKVHDDMFPLEEVAKLGYNVFYHGQKGHYGVALLTKETPIAVRRGFPGDDEEAQRRIIMAEIPSLLGNVTVINGYFPQGESRDHPIKFPAKAQFYQNLQNYLETELKRDNPVLIMGDMNISPTDLDIGIGEENRKRWLRTGKCSFLPEEREWMDRLMSWGLVDTFRHANPQTADRFSWFDYRSKGFDDNRGLRIDLLLASQPLAECCVETGIDYEIRSMEKPSDHAPVWATFRR”: the “total protein half-life in vivo” value was 5.619 ± 0.036 h under setting [11]; 5.58 ± 0.29 h under setting [1]; 5.75 ± 0.011 h under setting [2]; 6.04 ± 1.2 h under setting [3]; 5.27 ± 0.3 h under setting [4]; 3.14 ± 0.45 h under setting [12]. Moreover, the “total protein half-life in vivo” value under setting [5] came out at 5.863 ± 0.013 h; the “total protein half-life in vivo” value under setting [6] came out at 10.9 ± 0.79 h; the “total protein half-life in vivo” value under setting [7] came out at 5.46 ± 0.4 h; the “total protein half-life in vivo” value under setting [8] stood at 10.8 ± 0.2 h; the “total protein half-life in vivo” value under setting [9] turned out to be 5.61 ± 0.2 h; the “total protein half-life in vivo” value under setting [10] stood at 11.9 ± 1.3 h.
